# Experimental data published in patent US20250002610A1 (Genmab, published 2025).
# B1: BisG1-FAPα-FEAL/b12-FEAR (bispecific antibody, human IgG1, kappa)
# heavy 1: EVQLLESGGGLVQPGGSPRLSCEASGFTFSSYALSWVRQAPGKGLEWVSAISGSGGGRYYADSVKGRFTISRDNSKNTLFLQMNSLRAEDTAVYYCAKEGYSSSGTYWDHWGQGTLVTVSSASTKGPSVFPLAPSSKSTSGGTAALGCLVKDYFPEPVTVSWNSGALTSGVHTFPAVLQSSGLYSLSSVVTVPSSSLGTQTYICNVNHKPSNTKVDKRVEPKSCDKTHTCPPCPAPEFEGGPSVFLFPPKPKDTLMISRTPEVTCVVVAVSHEDPEVKFNWYVDGVEVHNAKTKPREEQYNSTYRVVSVLTVLHQDWLNGKEYKCKVSNKALPAPIEKTISKAKGQPREPQVYTLPPSREEMTKNQVSLTCLVKGFYPSDIAVEWESNGQPENNYKTTPPVLDSDGSFLLYSKLTVDKSRWQQGNVFSCSVMHEALHNHYTQKSLSLSPG
# light 1: AIQMTQSPSSVSASVGDRVTITCRASQGVSSWLAWYQQKPGRAPKLLIYVASTLQSGVPSRFSGSGSGTDFTLTINSLQPEDFATYYCQQANSFPPTFGQGTRLEMKRTVAAPSVFIFPPSDEQLKSGTASVVCLLNNFYPREAKVQWKVDNALQSGNSQESVTEQDSKDSTYSLSSTLTLSKADYEKHKVYACEVTHQGLSSPVTKSFNRGEC
# heavy 2: QVQLVQSGAEVKKPGASVKVSCQASGYRFSNFVIHWVRQAPGQRFEWMGWINPYNGNKEFSAKFQDRVTFTADTSANTAYMELRSLRSADTAVYYCARVGPYSWDDSPQDNYYMDVWGKGTTVIVSSASTKGPSVFPLAPSSKSTSGGTAALGCLVKDYFPEPVTVSWNSGALTSGVHTFPAVLQSSGLYSLSSVVTVPSSSLGTQTYICNVNHKPSNTKVDKRVEPKSCDKTHTCPPCPAPEFEGGPSVFLFPPKPKDTLMISRTPEVTCVVVAVSHEDPEVKFNWYVDGVEVHNAKTKPREEQYNSTYRVVSVLTVLHQDWLNGKEYKCKVSNKALPAPIEKTISKAKGQPREPQVYTLPPSREEMTKNQVSLTCLVKGFYPSDIAVEWESNGQPENNYKTTPPVLDSDGSFFLYSRLTVDKSRWQQGNVFSCSVMHEALHNHYTQKSLSLSPG
# light 2: EIVLTQSPGTLSLSPGERATFSCRSSHSIRSRRVAWYQHKPGQAPRLVIHGVSNRASGISDRFSGSGSGTDFTLTITRVEPEDFALYYCQVYGASSYTFGQGTKLERKRTVAAPSVFIFPPSDEQLKSGTASVVCLLNNFYPREAKVQWKVDNALQSGNSQESVTEQDSKDSTYSLSSTLTLSKADYEKHKVYACEVTHQGLSSPVTKSFNRGEC
# notes: Fab-arm exchange of IgG1-FAPα-FEAL and IgG1-b12-FEAR
# B2: BisG1-b12-FERL/DR4-FERR (bispecific antibody, human IgG1, kappa, lambda)
# heavy 1: QVQLVQSGAEVKKPGASVKVSCQASGYRFSNFVIHWVRQAPGQRFEWMGWINPYNGNKEFSAKFQDRVTFTADTSANTAYMELRSLRSADTAVYYCARVGPYSWDDSPQDNYYMDVWGKGTTVIVSSASTKGPSVFPLAPSSKSTSGGTAALGCLVKDYFPEPVTVSWNSGALTSGVHTFPAVLQSSGLYSLSSVVTVPSSSLGTQTYICNVNHKPSNTKVDKRVEPKSCDKTHTCPPCPAPEFERGPSVFLFPPKPKDTLMISRTPEVTCVVVDVSHEDPEVKFNWYVDGVEVHNAKTKPREEQYNSTYRVVSVLTVLHQDWLNGKEYKCKVSNKALPAPIEKTISKAKGQPREPQVYTLPPSREEMTKNQVSLTCLVKGFYPSDIAVEWESNGQPENNYKTTPPVLDSDGSFLLYSKLTVDKSRWQQGNVFSCSVMHEALHNHYTQKSLSLSPG
# light 1: EIVLTQSPGTLSLSPGERATFSCRSSHSIRSRRVAWYQHKPGQAPRLVIHGVSNRASGISDRFSGSGSGTDFTLTITRVEPEDFALYYCQVYGASSYTFGQGTKLERKRTVAAPSVFIFPPSDEQLKSGTASVVCLLNNFYPREAKVQWKVDNALQSGNSQESVTEQDSKDSTYSLSSTLTLSKADYEKHKVYACEVTHQGLSSPVTKSFNRGEC
# heavy 2: QVQLQESGPGLVKPSGTLSLTCAVSGGSISSYSWWSWIRQPPGKGLEWIGELYHSGSTNYNPSLKSRVTISVDKSKNQFSLKLRSVTAADTAVYYCVRGVATIDYWGQGTLVTVSSASTKGPSVFPLAPSSKSTSGGTAALGCLVKDYFPEPVTVSWNSGALTSGVHTFPAVLQSSGLYSLSSVVTVPSSSLGTQTYICNVNHKPSNTKVDKRVEPKSCDKTHTCPPCPAPEFERGPSVFLFPPKPKDTLMISRTPEVTCVVVDVSHEDPEVKFNWYVDGVEVHNAKTKPREEQYNSTYRVVSVLTVLHQDWLNGKEYKCKVSNKALPAPIEKTISKAKGQPREPQVYTLPPSREEMTKNQVSLTCLVKGFYPSDIAVEWESNGQPENNYKTTPPVLDSDGSFFLYSRLTVDKSRWQQGNVFSCSVMHEALHNHYTQKSLSLSPG
# light 2: QSALTQPPSASGSPGQSVTISCTGTSSDVGGYNFVSWYQQDPGKAPKLLIYEVTKRPSGVPDRFSGSKSGNTASLTVSGLQAEDEADYYCSSYAGSNNVMFGGGTKLTVLGQPKAAPSVTLFPPSSEELQANKATLVCLISDFYPGAVTVAWKADSSPVKAGVETTTPSKQSNNKYAASSYLSLTPEQWKSHRSYSCQVTHEGSTVEKTVAPTECS
# notes: Fab-arm exchange of IgG1-b12-FERL and IgG1-DR4-FERR; also called bsIgG1-ctrl-FERLxDR4-FERR
# B3: IgG1-FAPα-FERL (antibody)
# heavy: EVQLLESGGGLVQPGGSPRLSCEASGFTFSSYALSWVRQAPGKGLEWVSAISGSGGGRYYADSVKGRFTISRDNSKNTLFLQMNSLRAEDTAVYYCAKEGYSSSGTYWDHWGQGTLVTVSSASTKGPSVFPLAPSSKSTSGGTAALGCLVKDYFPEPVTVSWNSGALTSGVHTFPAVLQSSGLYSLSSVVTVPSSSLGTQTYICNVNHKPSNTKVDKRVEPKSCDKTHTCPPCPAPEFERGPSVFLFPPKPKDTLMISRTPEVTCVVVDVSHEDPEVKFNWYVDGVEVHNAKTKPREEQYNSTYRVVSVLTVLHQDWLNGKEYKCKVSNKALPAPIEKTISKAKGQPREPQVYTLPPSREEMTKNQVSLTCLVKGFYPSDIAVEWESNGQPENNYKTTPPVLDSDGSFLLYSKLTVDKSRWQQGNVFSCSVMHEALHNHYTQKSLSLSPG
# light: AIQMTQSPSSVSASVGDRVTITCRASQGVSSWLAWYQQKPGRAPKLLIYVASTLQSGVPSRFSGSGSGTDFTLTINSLQPEDFATYYCQQANSFPPTFGQGTRLEMKRTVAAPSVFIFPPSDEQLKSGTASVVCLLNNFYPREAKVQWKVDNALQSGNSQESVTEQDSKDSTYSLSSTLTLSKADYEKHKVYACEVTHQGLSSPVTKSFNRGEC
# notes: Bivalent monoclonal IgG1 kappa
# B4: IgG1-DR4-FERR (antibody, V domains shown)
# VH: QVQLQESGPGLVKPSGTLSLTCAVSGGSISSYSWWSWIRQPPGKGLEWIGELYHSGSTNYNPSLKSRVTISVDKSKNQFSLKLRSVTAADTAVYYCVRGVATIDYWGQGTLVTVSS
# VL: QSALTQPPSASGSPGQSVTISCTGTSSDVGGYNFVSWYQQDPGKAPKLLIYEVTKRPSGVPDRFSGSKSGNTASLTVSGLQAEDEADYYCSSYAGSNNVMFGGGTKLTVLG
# notes: Bivalent monoclonal IgG1 lambda
# Columns and labels:
# [1] = biological target: T1, mouse FAPα on Expi293F cells (mouse (Mus musculus), UniProt P97321 1-761); test: flow cytometry on Expi293F cells transiently expressing mouse FAPα, gMFI PE
# T1 sequence: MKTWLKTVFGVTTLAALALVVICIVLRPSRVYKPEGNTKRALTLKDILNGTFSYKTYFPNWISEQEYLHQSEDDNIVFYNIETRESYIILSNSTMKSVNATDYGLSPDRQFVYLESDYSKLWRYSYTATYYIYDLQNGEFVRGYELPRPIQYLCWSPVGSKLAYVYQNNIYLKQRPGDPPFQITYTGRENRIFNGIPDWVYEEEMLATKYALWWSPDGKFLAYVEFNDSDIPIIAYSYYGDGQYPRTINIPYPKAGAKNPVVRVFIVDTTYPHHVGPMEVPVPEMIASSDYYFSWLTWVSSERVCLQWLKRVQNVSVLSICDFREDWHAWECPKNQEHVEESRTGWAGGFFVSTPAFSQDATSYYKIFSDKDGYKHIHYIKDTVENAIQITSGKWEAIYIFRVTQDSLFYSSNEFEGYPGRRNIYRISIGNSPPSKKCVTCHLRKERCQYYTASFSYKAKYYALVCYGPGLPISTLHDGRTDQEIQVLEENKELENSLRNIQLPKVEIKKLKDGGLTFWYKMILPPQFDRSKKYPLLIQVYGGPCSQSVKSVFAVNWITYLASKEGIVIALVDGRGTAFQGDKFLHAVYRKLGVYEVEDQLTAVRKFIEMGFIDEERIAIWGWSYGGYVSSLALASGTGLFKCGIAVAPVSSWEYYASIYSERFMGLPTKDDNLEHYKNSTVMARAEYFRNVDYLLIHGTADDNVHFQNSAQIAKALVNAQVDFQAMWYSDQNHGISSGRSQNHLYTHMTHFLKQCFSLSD
# Protocol: Binding of BisG1-FAPα-FERL/DR4-FERR, BisG1-FAPα-FEAL/b12-FEAR and IgG1-FAPα-FERL to FAPα of species commonly used for nonclinical toxicology studies was assessed by flow cytometry using Expi293F cells transiently expressing FAPα from different animal species. IgG1-b12 was included as negative control.
# Expi293F cells expressing recombinant FAPα from various species (human, cynomolgus monkey, dog, pig, rat or mouse) were seeded (20,000 cells/well) in 96-Well round bottom plates (Greiner Bio-one, Cat #650101). Antibody dilutions were prepared using FACS buffer, consisting of PBS (Capricorn Scientific, Cat #PBS-10XA, diluted to 1×PBS in distilled water)+1% BSA (Roche, Cat #10735086001)+0.02% Sodium Azide (Bio-World, Cat #41920044-3). Plates were centrifuged, supernatant was removed, and cells were resuspended in 100 μL of antibody dilutions (concentration range 30-0.00017 μg/mL with three-fold serial dilutions using FACS buffer) of BisG1-FAPα-FERL/DR4-FERR, BisG1-FAPα-FEAL/b12-FEAR, IgG1-FAPα-FERL and IgG1-b12 and incubated for 30 min at 4° C. […] After 30 min incubation at 4° C., cells were washed with FACS buffer and resuspended in FACS buffer supplemented with TO-PRO-3 Iodide viability marker (Invitrogen, Cat #T3605, diluted 1:4,000). Antibody binding to viable cells (gMFI of PE on TO-PRO-3 negative cells) was analyzed by flow cytometry on a FACS Celesta and FACS_Diva software (first two experiments) or iQue® 3 and FlowJo software (last experiment). gMFI was determined and visualized using GraphPad Prism. Binding curves were analyzed using nonlinear regression analysis. The concentration (pg/mL) at which 50% of the maximal effect was observed (EC₅₀) was derived from the fitted curves.
# [2] = biological target: T2, human DR4 (Death Receptor 4), cell surface expressed on human tumor cell lines (human, UniProt O00220 24-468); test: flow cytometry, MDA-MB-231 cells, N = 1
# T2 construct: also called TNFRSF10A; TRAIL-R1
# T2 sequence: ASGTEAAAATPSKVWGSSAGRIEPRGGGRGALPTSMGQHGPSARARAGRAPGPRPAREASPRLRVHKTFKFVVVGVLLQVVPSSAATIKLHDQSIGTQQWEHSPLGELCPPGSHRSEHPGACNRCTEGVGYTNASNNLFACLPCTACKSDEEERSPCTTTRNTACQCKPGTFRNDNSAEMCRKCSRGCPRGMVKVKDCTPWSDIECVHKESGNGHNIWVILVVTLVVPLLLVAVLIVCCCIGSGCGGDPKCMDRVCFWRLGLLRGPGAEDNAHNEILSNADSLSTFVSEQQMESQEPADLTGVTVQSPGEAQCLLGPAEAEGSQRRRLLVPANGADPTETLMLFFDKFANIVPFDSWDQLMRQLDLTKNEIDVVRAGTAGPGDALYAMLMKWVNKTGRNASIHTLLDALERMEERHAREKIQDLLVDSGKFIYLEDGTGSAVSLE
# [3] = biological target: T2, human DR4 (Death Receptor 4), cell …; test: flow cytometry, DLD-1 cells, average ± SEM
Binder,binding result [1],EC50 [2],Max MFI (at 90 µg/mL) [2],EC50 [3],EC50 (read off the curve) [1]
B1,binds,,,,
B2,,0.39 µg/mL,7840 MFI,0.72 µg/mL,
B3,,,,,~0.1 µg/mL
B4,,0.24 µg/mL,,0.26 µg/mL,
